From doi:10.1101/2025.06.17.660173, “Twinfilin is a potent uncapper of actin capping protein and modulates actomyosin contractility in the C. elegans spermatheca” (bioRxiv, 2025)

Target: T1, biotinylated SNAP tagged C. elegans heterodimeric capping protein (CAP-1/CAP-2) (C. elegans, UniProt P34685 1-282; P34686 1-270, biotin on the SNAP tag (benzylguanine-biotin); the subunit that carries it is not stated | biotin on the SNAP tag (benzylguanine-biotin); the subunit that carries it is not stated)
T1 construct: CAP-1, a capping protein subunit of C. elegans; CAP-2, a capping protein subunit of C. elegans; The complex was anchored to streptavidin-coated coverslips by the biotin; also called SNAP-CP; CP; source: E. coli BL21 DE3, purified (HisTrap, Superose 6), labelled with benzylguanine-biotin; not shown: His tag (from the HisTrap purification)
T1 sequence (looked up) 1: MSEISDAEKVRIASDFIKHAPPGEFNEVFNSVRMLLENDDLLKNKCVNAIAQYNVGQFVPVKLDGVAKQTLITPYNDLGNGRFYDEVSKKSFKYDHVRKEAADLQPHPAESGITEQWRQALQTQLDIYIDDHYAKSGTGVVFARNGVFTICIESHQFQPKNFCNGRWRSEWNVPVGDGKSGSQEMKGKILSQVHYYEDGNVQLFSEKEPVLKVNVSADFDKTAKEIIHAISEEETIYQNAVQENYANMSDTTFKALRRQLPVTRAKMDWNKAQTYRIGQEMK
T1 sequence (looked up) 2: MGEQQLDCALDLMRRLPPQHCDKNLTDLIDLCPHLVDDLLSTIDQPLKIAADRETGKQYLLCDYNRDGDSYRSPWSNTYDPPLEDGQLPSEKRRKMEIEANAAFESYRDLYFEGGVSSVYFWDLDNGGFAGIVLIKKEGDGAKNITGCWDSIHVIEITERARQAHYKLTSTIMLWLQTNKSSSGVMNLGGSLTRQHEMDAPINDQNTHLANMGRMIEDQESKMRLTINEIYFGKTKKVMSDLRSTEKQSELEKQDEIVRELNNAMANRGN
Experiment: mf-TIRF microscopy uncapping assay; biotinylated SNAP-CP anchored to the coverslip; preformed Alexa-488-labelled (15%) ADP-actin filaments captured; filament detachment followed with and without TWF-2 in TIRF buffer (10 mM imidazole pH 7.4, 50 mM KCl, 1 mM MgCl2, 1 mM EGTA, 0.2 mM ATP, 10 mM DTT); survival fitted to a single exponential
Conditions: both partners purified

B1: C. elegans TWF-2 (6×His-tagged), recombinant (natural protein, UniProt Q20173 1-333, looked up)
chain: MACQTGIRANAALRNALNLGKQAKLRLIKIVVNNEEMTPNYEFAGTANWRDDWRACLPDCVDAYEPCFILFRLNTITEWVLITFVDDRAPVREKMLLAATCATFKSEFGQCYIEHEKHVTDLKDLTLNAFEAWLKAKTELGPMSEVERELHNAQQERAAIAHAGPQHMKGVAFPVDRNAEEALRQLASQKLSFVQLSVDTLNEAIKLEGTLESLEPSQLASKVPRDKPRYTFYNFDHTWEGVPQQCTLFIYSLPSSGSSIKERMLYSSCKGPFLSAAQNQYGVVITNKMEVDARDDLSEKALLEVIHPLPVEAPKQFSRPAPPRAGPRRITKV
notes: TWF-2, the sole twinfilin ortholog of C. elegans; also called twinfilin; C. elegans twinfilin; source: E. coli BL21 (pRare), purified (Ni-NTA, Superdex 75 Increase)
- fold acceleration of uncapping of CP from actin filaments: > 90 fold
